Assay results as given in article PMC9873690, “Structural insights into the elevator-type transport mechanism of a bacterial ZIP metal transporter” (Nature Communications, 2023).

Molecular target: the molecule itself
Assay: cross-linking; disulfide cross-linking of variants purified in DDM with 50 µM Cu(II)-(1,10-phenanthroline)3 at 25 °C; non-reducing SDS-PAGE and Western blot with anti-Histag antibody

B1: BbZIP L138C/M295C variant (natural protein)
chain: MNQPSSLAADLRGAWHAQAQSHPLITLGLAASAAGVVLLLVAGIVNALTGENRVHVGYAVLGGAAGFAATALGALMALGLRAISARTQDAMLGFAAGMMLAASAFSLILPGLDAAGTIVGPGPAAAAVVALGLGLGVCLMLGLDYFTPHEHERTGHQGPEAARVNRVWLFVLTIILHNLPEGMAIGVSFATGDLRIGLPLTSAIAIQDVPEGLAVALALRAVGLPIGRAVLVAVASGLMEPLGALVGVGISSGFALAYPISMGLAAGAMIFVVSHEVIPETHRNGHETTATVGLCAGFALMMFLDTALG
notes: Purified protein was detected with the anti-Histag antibody; in the membrane fraction it was detected with a custom monoclonal antibody against BbZIP; source: E. coli C41 (DE3) pLysS, purified in DDM (1 mM TCEP except in the last size-exclusion step); also in the spheroplast-derived membrane fraction of E. coli cells; not shown: His-tag, N-terminal, kept
- stoichiometry N: 2
